Source: US20220356235A1 (STICHTING SANQUIN BLOEDVOORZIENING, published 2022)
One block for each binder: values may come before it.

Assays:
[1] = molecular target: T1, human factor H, full length (human, UniProt P08603 19-1231); experiment: cell-based or functional assay
[2] = molecular target: T2, recombinant human FH fragment CCP 18-20 (human, UniProt P08603 1046-1231); experiment: SPR (Biacore T200), mAb captured on ProtA or ProtG chip, FH CCP18-20 flowed over, 1:1 model
T2 construct: domain: CCP 18-20; also called fragment of FH comprised of domain 18-20
T2 sequence (looked up): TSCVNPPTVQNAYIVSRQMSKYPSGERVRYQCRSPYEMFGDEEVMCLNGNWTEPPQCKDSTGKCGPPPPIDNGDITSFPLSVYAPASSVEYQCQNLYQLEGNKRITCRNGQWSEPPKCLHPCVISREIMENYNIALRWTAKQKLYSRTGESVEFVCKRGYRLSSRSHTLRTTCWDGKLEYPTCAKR
Protocol: (§1) Surface plasmon resonance (SPR) experiments were performed using a BiaCore T200 (GE Healthcare) and CM5 sensor chips (GE Healthcare) in accordance with the manufacturer's instructions. In short, to determine its affinity, anti-FH.07, anti-FHR-1 3B4 or anti-FHR-1 8E4 were captured onto a ProtA or ProtG coupled chip and either full length FH or a fragment of FH comprising domain 18-20 was flown over the captured moAB at decreasing concentrations.

[3] = molecular target: T1, human factor H, full length; experiment: SPR (Biacore T200), mAb captured on ProtA or ProtG chip, full length FH flowed over, 1:1 model
Protocol: as §1

[4] = molecular target: T2, recombinant human FH fragment CCP 18-20; experiment: SPR, mAb captured, FH CCP18-20 flowed over (fuller figure of the value rounded to 0.03 × 10^-9 in Table 2)
Protocol: as §1

[5] = molecular target: T3, recombinant human FH fragment CCP 19-20 (human, UniProt P08603 1107-1231); experiment: competition ELISA: mAb captured on RM-19 coated plate, FH-bt mixed with unlabelled CCP 19-20
T3 construct: domain: CCP 19-20
T3 sequence (looked up): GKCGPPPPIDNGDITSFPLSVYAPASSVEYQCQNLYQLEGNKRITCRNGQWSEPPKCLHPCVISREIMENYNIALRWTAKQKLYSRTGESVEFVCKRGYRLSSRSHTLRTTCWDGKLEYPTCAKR
Protocol: The location of the epitope of anti-FHR-1 mAbs was determined using recombinant human FH fragments composed of multiple CCP domains (15-18, 15-19, 18-20 or 19-20). In short, anti-FHR-1 mAbs were captured on a RM-19 coated microtiterplate to assure optimal binding conformation. Next, biotinylated FH, mixed with a 100-fold higher concentration of the indicated unlabeled recombinant FH-fragments, was incubated on the plate for 1 hour. Binding of biotinylated FH was determined by incubation with 0.01% (v/v) streptavidin conjugated with poly-HRP, in HPE for 30 min. The ELISA was further developed as described above. To determine whether the anti-FHR-1 mAbs competed with anti-FH.07 for the binding of FH, a similar set-up was used. In short, mAbs were directly coated to the plate and binding of biotinylated FH (FH-bt) in the absence or presence of a 10-fold higher concentration of indicated mAbs was assessed by ELISA as described above.

C3b [6] = molecular target: T4, C3b (UniProt P01024 23-667; P01024 749-1663, limits assumed); experiment: SPR on immobilised C3b, FH with Fab′ against FH alone
T4 construct: C3b has two chains (beta and alpha') derived from C3; also called purified C3b (Complement Technologies)
T4 sequence (P01024 23-667 limits assumed, chain 1 of 2): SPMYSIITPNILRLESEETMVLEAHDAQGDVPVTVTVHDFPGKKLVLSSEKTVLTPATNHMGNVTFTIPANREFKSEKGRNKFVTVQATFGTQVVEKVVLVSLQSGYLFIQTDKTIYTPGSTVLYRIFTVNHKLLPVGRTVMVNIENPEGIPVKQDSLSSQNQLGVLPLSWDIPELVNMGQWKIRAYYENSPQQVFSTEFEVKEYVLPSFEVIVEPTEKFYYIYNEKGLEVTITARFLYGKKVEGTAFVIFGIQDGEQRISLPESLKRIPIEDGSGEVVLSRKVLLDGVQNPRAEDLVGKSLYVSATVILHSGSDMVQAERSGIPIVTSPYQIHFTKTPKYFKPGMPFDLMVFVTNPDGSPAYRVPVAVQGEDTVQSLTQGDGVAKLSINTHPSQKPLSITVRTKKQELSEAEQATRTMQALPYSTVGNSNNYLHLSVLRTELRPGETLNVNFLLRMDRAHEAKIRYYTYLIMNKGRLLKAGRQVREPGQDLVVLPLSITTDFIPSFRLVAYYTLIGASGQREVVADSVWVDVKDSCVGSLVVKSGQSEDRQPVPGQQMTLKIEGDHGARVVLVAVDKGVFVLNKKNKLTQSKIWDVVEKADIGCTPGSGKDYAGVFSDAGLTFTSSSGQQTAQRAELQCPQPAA
T4 sequence (P01024 749-1663 limits assumed, chain 2 of 2): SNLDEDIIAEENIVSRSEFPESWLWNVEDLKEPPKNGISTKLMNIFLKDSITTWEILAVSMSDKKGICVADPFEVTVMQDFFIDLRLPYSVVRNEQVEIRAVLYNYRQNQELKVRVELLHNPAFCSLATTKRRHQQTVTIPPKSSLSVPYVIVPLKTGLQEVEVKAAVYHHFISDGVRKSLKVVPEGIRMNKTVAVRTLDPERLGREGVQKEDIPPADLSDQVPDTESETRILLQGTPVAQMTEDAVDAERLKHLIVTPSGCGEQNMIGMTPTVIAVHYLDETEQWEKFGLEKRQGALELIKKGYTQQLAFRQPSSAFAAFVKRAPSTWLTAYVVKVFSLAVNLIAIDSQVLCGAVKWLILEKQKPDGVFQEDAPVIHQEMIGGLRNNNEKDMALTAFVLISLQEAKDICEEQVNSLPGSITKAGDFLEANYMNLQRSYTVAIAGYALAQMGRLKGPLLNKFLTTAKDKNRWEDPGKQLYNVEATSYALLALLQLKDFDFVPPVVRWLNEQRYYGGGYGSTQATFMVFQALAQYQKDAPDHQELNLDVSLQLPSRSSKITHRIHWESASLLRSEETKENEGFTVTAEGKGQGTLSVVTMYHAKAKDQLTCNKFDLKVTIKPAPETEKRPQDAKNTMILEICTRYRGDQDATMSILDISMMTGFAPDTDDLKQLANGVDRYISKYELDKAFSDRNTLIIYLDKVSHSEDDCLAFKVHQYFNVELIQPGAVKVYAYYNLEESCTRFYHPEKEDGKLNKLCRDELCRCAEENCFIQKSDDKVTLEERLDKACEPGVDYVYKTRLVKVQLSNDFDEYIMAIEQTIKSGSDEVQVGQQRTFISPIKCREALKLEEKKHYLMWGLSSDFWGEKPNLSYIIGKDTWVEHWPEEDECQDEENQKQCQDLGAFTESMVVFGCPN
Protocol: (§2) Binding of FH to C3b in the presence of the anti-FH moAbs was determined by surface plasmon resonance using a Biacore T200 instrument (GE Healthcare, Little Chalfont, UK). Purified C3b (Complement Technologies) was immobilized onto a flow cell of a CM5 Biacore Sensor Chip (GE Healthcare) using standard amine coupling. The remaining flow cell was used as reference surface and prepared by performing a coupling reaction without the addition of any protein. A response of 2000 response units (RUs) was obtained after coupling with C3b. SPR experiments were performed at 37° C. using a flow rate of 10 μl/min and in phosphate buffered saline pH 7.4 (PBS, Orphi Farma) supplemented with 0.01% (w/v) Tween-20 (Merck) (PBS-T).
(§3) To determine the effect of the antibodies without interference of possible cross-linking via the moAb, recombinantly produced Fab′ fragments of the moAbs were used. Fab′ fragments were mixed with plasma purified FH (pdFH). […] Each Fab′ fragment was also injected without addition of FH to determine any interactions of the Fab′ fragments with the surfaces. The pdFH injection was followed by a dissociation of 60 seconds and surface was regenerated between each cycle by a single injection of 1 M NaCl (Merck).

C3b [7] = molecular target: T4, C3b; experiment: SPR on immobilised C3b, equilibrium analysis, FH with Fab′ against FH alone
Protocol: as §2, §3

C3b [8] = molecular target: T4, C3b; experiment: SPR, C3b amine-coupled to CM5 chip, FH (5-0.01953 µM) injected with 10 µM anti-FHR-1 8E4 Fab′, equilibrium analysis; FH with anti-FHR-1 8E4 Fab′
Protocol: as §2, §3

- IC50 (nM), LPS C3b dep. assay [1]: 26.3 nM
- Kd [2]: 0.03 nM
- koff [2]: 4.96e-05 s⁻¹
- kon [2]: 1.58e+06 M⁻¹ s⁻¹
- Kd [3]: 10.4 nM
- koff [3]: 9.39e-05 s⁻¹
- kon [3]: 9000 M⁻¹ s⁻¹
- Kd [4]: 0.0313 nM
- binding result [5]: no binding
B1: anti-FHR-1.8E4 (antibody, V domains shown)
VH: QVQLKQSGPGLVQPSQSLSITCTVSDFSLTNSGVHWVRQSPGKGLEWLGVIWSGGTTEYNAAFMSRLTITKDNSKSQVFFKMNSLLVDDTGIYYCARNFGNYAVDYWGQGTSVTVSS
VL: QIVLSQSPAILSASPGEKVTMTCRASSSVRYMHWYQQKAGSSPTAWIFATSNLASGVPPRFSGSGSGTSYSLTISRVEAEDAATYYCQQWGTKPPTFGAGTKLELK
notes: Mouse monoclonal from a hybridoma, raised against recombinant human FHR-1; also called aFHR-1 8E4
- IC50 (nM), Hemolytic assay [1]: 128 nM

- fold increase of measured RU against FH alone (C3b [6]): ≥ 2 fold
- increase in affinity of FH for C3b against FH alone (times) (C3b [7]): 3.6 times
- Kd (C3b [8]): 1660 nM
B2: FH complexed with anti-FHR-1 8E4 Fab′ fragment (other, human)
chain: EDCNELPPRRNTEILTGSWSDQTYPEGTQAIYKCRPGYRSLGNVIMVCRKGEWVALNPLRKCQKRPCGHPGDTPFGTFTLTGGNVFEYGVKAVYTCNEGYQLLGEINYRECDTDGWTNDIPICEVVKCLPVTAPENGKIVSSAMEPDREYHFGQAVRFVCNSGYKIEGDEEMHCSDDGFWSKEKPKCVEISCKSPDVINGSPISQKIIYKENERFQYKCNMGYEYSERGDAVCTESGWRPLPSCEEKSCDNPYIPNGDYSPLRIKHRTGDEITYQCRNGFYPATRGNTAKCTSTGWIPAPRCTLKPCDYPDIKHGGLYHENMRRPYFPVAVGKYYSYYCDEHFETPSGSYWDHIHCTQDGWSPAVPCLRKCYFPYLENGYNQNYGRKFVQGKSIDVACHPGYALPKAQTTVTCMENGWSPTPRCIRVKTCSKSSIDIENGFISESQYTYALKEKAKYQCKLGYVTADGETSGSITCGKDGWSAQPTCIKSCDIPVFMNARTKNDFTWFKLNDTLDYECHDGYESNTGSTTGSIVCGYNGWSDLPICYERECELPKIDVHLVPDRKKDQYKVGEVLKFSCKPGFTIVGPNSVQCYHFGLSPDLPICKEQVQSCGPPPELLNGNVKEKTKEEYGHSEVVEYYCNPRFLMKGPNKIQCVDGEWTTLPVCIVEESTCGDIPELEHGWAQLSSPPYYYGDSVEFNCSESFTMIGHRSITCIHGVWTQLPQCVAIDKLKKCKSSNLIILEEHLKNKKEFDHNSNIRYRCRGKEGWIHTVCINGRWDPEVNCSMAQIQLCPPPPQIPNSHNMTTTLNYRDGEKVSVLCQENYLIQEGEEITCKDGRWQSIPLCVEKIPCSQPPQIEHGTINSSRSSQESYAHGTKLSYTCEGGFRISEENETTCYMGKWSSPPQCEGLPCKSPPEISHGVVAHMSDSYQYGEEVTYKCFEGFGIDGPAIAKCLGEKWSHPPSCIKTDCLSLPSFENAIPMGEKKDVYKAGEQVTYTCATYYKMDGASNVTCINSRWTGRPTCRDTSCVNPPTVQNAYIVSRQMSKYPSGERVRYQCRSPYEMFGDEEVMCLNGNWTEPPQCKDSTGKCGPPPPIDNGDITSFPLSVYAPASSVEYQCQNLYQLEGNKRITCRNGQWSEPPKCLHPCVISREIMENYNIALRWTAKQKLYSRTGESVEFVCKRGYRLSSRSHTLRTTCWDGKLEYPTCAKR
VH: B1 VH
VL: B1 VL
notes: mature; also called FH in presence of 10 µM anti-FHR-1 8E4 Fab′
